# The nanobody polyreactivity screen of Harvey et al. (2022)
# Assay: yeast display, Sf9 membrane polyspecificity reagent, FACS + sequencing; frameworks hold sequencing errors
# Summary of the method: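 After 36–48 hours of galactose induction, yeast (Saccharomyces cerevisiae BJ5465) displaying a synthetic nanobody library were stained at 4 °C for 1 hour with 10% biotinylated, detergent-solubilized Sf9 membrane reagent. Streptavidin microbeads enriched the stained cells before FACS sorting into low and high (top ~1%) gates on anti-HA and streptavidin fluorescence. Each clone's polyreactivity label reflects its gate of origin.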
row,Sequence,polyreactivity (PSR sort gate)
1,QVQLVESGAGLVQAGGSLRLSCAPSGRIFEYNAMGWYRQAPGKESELVAAIRSGGGSTYYADSVKGRFTISRDNAKNTVYLQMNSLNPEDTAVYYCAARRKRVSFYAEYDYWGQGTQVTVSS,low polyreactivity
2,QVQLVESGAGLVQAGGSLRLSCDASGLIFAGYAMGWYRQAPGTERELVAAITWRGGRTYADSVKGRFTISRDNAKNTVYLQINSLKPEDTAVYYCNKDPWYVFHPRGQFLFDYWGQGTQVTVSS,low polyreactivity
3,QVQLVESGAGLVQAGGSLRLSCSAYGFIFGFYAMGWSRQAPGKERELVADITSSGGSTYYADSVKGRFTLSRDNAKNTVYLQMNSLKPEDTAVYYCAADGWWHNFYPGNGLDYWGQGTQVTVSS,low polyreactivity
4,QVQLVESGAGLVQAGGSLRLSFAASGRTFVSYDMGWYRQATGKERELVAAITYSGGSSTYYADSVKGRFTISRDNAKNTVYLQMNSLKPEDTAVYYCAVYGGGSRNFGDVGYWGQGTLVTVSS,low polyreactivity
5,QVQLVESGAGLVQAGGSLRLTCAASGSTFLDMGLYRQAPAKEREFVASISLSGGSTYYADSVKGRFTISRDNAKNTVYLQMNSLKPEDTAVYYCNAEAWWYFWFDYWGQGTQVTVSS,low polyreactivity
6,QVQLVESGARIVQAGGSLRLSCAAYGSTFGRYGMGWYRQAPGKERELVAAISRAGGTNYADSVKGRITISRDNAKNTVYLQMNSLKPEDTAVYYCNARWYYVLYDYWGQGTQVTVSS,low polyreactivity
7,QVQLVESGARLVQAGGSLRLSCAASGRTVAYNAMGWSREAAGKEREVDPAISRRGGSTYYADSVKGRFTISRDNAKNTVNLQMNSLKPEDTAVYYCASRRLRRASSLDYWGQGSQVTVSS,high polyreactivity
8,QVQLVESGARLVQAVGSLRLSCAASARILTFNAMGWYRQAPGKEREVVASITSDVSTYYADSVKGRFTISRDNAKTTVYLQMNSLKPEDTAVYYCAADGWYTYVGRLDYWRQGTQVTVSS,low polyreactivity
9,QVQLVESGGALDQAGGSLRLSCAASGSTFISNAMGWYRQAPGKERELVAAISSGGGRTSYADSVKGRFTISRDNANNTVYLQMNSLKPEDTAVYYCNTKKLPYAEGYWGQGTQVTVSS,low polyreactivity
10,QVQLVESGGALFQAGGSLRLSCAASGIIFGVYAMGWYRQAPVKERELVASITWGGGSTYYADSVKGRFTISRDNAKNTVYLQMNSLKPEDTAVYYCNKRGYPGYDWGQGTQVTVSS,low polyreactivity
11,QVQLVESGGALLQAGGSLRLSCAASGSIFRFYAMGWYRQAPGKERELVARISGGGTTNYADSVKGRFTISRDNAKYTVYLQKNSQKPDDTAVYYCAAGCLYLPIWYPRWRYEYWGQGTQVTVSS,low polyreactivity
12,QVQLVESGGALVQAAGSLRLSCAASGRTFRRNTMGWYRQAPGKERELVAAISSSGSSTYYADSVKGRFTISRDNEKNTVYLQMNSLKPEDTAVYYCAATGSRRFGYWGQGTQVTVSS,high polyreactivity
13,QVQLVESGGALVQAGASLRLSCAASGFTFWDYAMGWYRQAPGKERELVAAISDNDGSTDYADSVKGRFTISRDIAKNSVYLQMNSLKPEDTAVYSCNAEIELPSKVGDYWGQGTLVTVSS,low polyreactivity
14,QVQLVESGGALVQAGATLRISSAASGSIFYRNSMRWYRQAPGKEREKVAANSSDGSRNYADSVKGRFSISRDNAKNTVYLQMNSLKPEDNAVYYCAVDYGTQYGEYTYYDYDYWGQCTQVTVSS,low polyreactivity
15,QVQLVESGGALVQAGCSLSLSCAASGRIFSHNAMGWYRQAPGKERELVAGISSGGGTTYADSVKGRFTISRDNAKNNVYLQMNSLKPEDTAVYYCNKQDQPVGRSGYPYGYDYWGQGTQVTVSS,low polyreactivity
16,QVQLVESGGALVQAGGSLRLICAASGRIFPRNVMGWYRQAPGKERELVAAISSRGTRTYYADSVKGRFTISRDNAKNTVYLQMYSLKPEDTAVYYCAADGPYEGYDYWGQGTQVTVSS,high polyreactivity
17,QVQLVESGGALVQAGGSLRLICAASGRTFQKYTMGWYRQAPGKERELVAAISKRGGSTYYADSVKGRFTISRDNAKNTVYLQMNSLKPEDTAVYYCATRVYRSAVSYDYWGQGTQVTVSS,high polyreactivity
